Assay results as given in patent publication US20210054055A1 (UNIVERSITY OF VERMONT AND STATE AGRICULTURAL COLLEGE, published 2021).
Read-outs that look alike come from different tables or passages of the source.

T1: MR766
T1 envelope protein E: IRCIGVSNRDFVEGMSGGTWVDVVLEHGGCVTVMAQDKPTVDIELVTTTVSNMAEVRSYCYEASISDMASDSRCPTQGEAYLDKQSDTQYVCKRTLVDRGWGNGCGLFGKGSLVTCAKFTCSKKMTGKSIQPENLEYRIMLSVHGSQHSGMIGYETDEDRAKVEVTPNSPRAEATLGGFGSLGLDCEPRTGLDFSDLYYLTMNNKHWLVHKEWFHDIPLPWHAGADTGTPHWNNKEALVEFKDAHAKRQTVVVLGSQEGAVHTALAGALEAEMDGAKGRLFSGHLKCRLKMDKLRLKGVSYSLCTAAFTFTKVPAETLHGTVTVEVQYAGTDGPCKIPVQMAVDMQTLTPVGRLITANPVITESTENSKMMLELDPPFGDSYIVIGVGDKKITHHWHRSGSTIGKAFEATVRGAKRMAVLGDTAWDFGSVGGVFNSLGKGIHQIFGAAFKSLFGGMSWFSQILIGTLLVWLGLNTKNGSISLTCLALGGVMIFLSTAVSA

B1: Anti-ZIKV clone DT168(A)-D1_A-9E (A9E) (antibody, V domains shown)
VH: EVQLLESGGGLVQAGGSLRLSCAASGFTFDTYAMSWVRQPPGKGLEWVSAISTGGGSKYYADSVKGRLTISRDNSQNTLYLQMSSLRADDTAVYYCARSDFWRSGRYYYYMDVWGRGTTVTVSS
VL: QSALTQPASVSASPGQSITISCTGTHFDIVDYDYLSWYQQHPGNAPKLLIYGVSNRPSGVSSRFSGSKSGNTASLTISGLQAEDEGDYYCSSYSISSTLLVFGGGTKLSV
notes: also called ZV1; A9E mAb
B2: Anti-ZIKV clone DT168(A)-D1_G-9E (G9E) (antibody, V domains shown)
VH: EVQLVESGGGVVQPGRSLRLSCVASGFAFSNYHMHWVRQAPGKGLEWVAIIWDDGSDQYYADSVKGRFTISRDNSKNTLFLQMNRLRAEDTALYYCVGGSSAYNGDNGWREAASLDDWGQGTLVTVSS
VL: QSALTQPASVSGSPGQSITIFCSGSSNDVGGYNYVSWYQQYPGKVPKLLIYDVNSRPSGVSNRFSGSKSGNTASLTISGLQAEDEADYYCSSYTSRRTWVFGGGTIVTVL
notes: also called ZV2; G9E mAb

Columns and labels:
[1] = target: T2, ZIKV recombinant E (ZIKV E80), recombinantly expressed monomeric ectodomain of ZIKV E protein (Zika virus, UniProt A0A024B7W1 291-694); experiment: direct antigen coating ELISA, 50 ng recombinant antigen per well; target ZIKV E80
[2] = target: T3, Zika virus (ZIKV) virions, envelope protein E (Zika virus, UniProt A0A024B7W1 291-794)
[3] = target: T3, Zika virus (ZIKV) virions, envelope …; remark: listed apart in the source
[4] = target: T4, ZVEDI, recombinant ZIKV E domain I (Zika virus, UniProt A0A024B7W1 291-585); experiment: direct antigen coating ELISA, 50 ng recombinant antigen per well; target ZVEDI (domain I)
[5] = target: ZVEDIII, recombinant ZIKV E domain III (Zika virus, UniProt A0A024B7W1 586-693); experiment: direct antigen coating ELISA
[6] = target: T3, Zika virus (ZIKV) virions, envelope …; remark: listed apart in the source
[7] = target: T3, Zika virus (ZIKV) virions, envelope …; remark: listed apart in the source
[8] = target: ZIKV/2015/Paraiba, envelope protein E (Zika virus strain ZIKV/2015/Paraiba); experiment: cell-based or functional assay
[9] = target: H/PF/2013 (Zika virus); experiment: cell-based or functional assay
[10] = target: T1, MR766; experiment: cell-based or functional assay
[11] = target: Dakar (Zika virus); experiment: cell-based or functional assay
[12] = target: T5, Dengue virus serotype 1 (DENV1) virions, envelope protein E (Dengue virus 1, UniProt P17763 281-775); experiment: antigen capture ELISA
T5 construct: domain: envelope protein E

[13] = target: T3, Zika virus (ZIKV) virions, envelope …; remark: listed apart in the source
[14] = target: T2, ZIKV recombinant E (ZIKV E80), …
[15] = target: T2, ZIKV recombinant E (ZIKV E80), …; remark: listed apart in the source
[16] = target: T4, ZVEDI, recombinant ZIKV E domain I; experiment: direct antigen coating ELISA
[17] = target: T2, ZIKV recombinant E (ZIKV E80), …; remark: listed apart in the source

T5 sequence (P17763 281-775 limits assumed): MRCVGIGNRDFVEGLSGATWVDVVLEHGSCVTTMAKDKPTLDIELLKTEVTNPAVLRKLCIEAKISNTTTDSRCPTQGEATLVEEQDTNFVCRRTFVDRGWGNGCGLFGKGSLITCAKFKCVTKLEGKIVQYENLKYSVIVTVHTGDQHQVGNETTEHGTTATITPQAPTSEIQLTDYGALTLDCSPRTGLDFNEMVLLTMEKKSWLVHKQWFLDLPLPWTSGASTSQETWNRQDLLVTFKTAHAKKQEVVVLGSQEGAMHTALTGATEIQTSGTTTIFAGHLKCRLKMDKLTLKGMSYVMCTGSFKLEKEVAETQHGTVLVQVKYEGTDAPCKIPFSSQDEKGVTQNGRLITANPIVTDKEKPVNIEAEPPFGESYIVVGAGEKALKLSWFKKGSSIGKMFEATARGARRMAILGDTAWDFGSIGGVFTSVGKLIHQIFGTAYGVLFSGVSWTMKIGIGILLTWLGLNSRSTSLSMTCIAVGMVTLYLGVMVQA
ZVEDIII, recombinant ZIKV E domain III, sequence (A0A024B7W1 586-693 limits assumed): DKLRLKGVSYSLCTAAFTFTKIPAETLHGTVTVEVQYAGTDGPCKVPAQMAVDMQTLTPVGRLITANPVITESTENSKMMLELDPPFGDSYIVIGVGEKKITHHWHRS

| Binder | EC50 [1] | IC50 (read off the curve) [2] | EC50 (read off the curve) [3] | EC50 [4] | binding result [5] | IC50 (read off the curve) [6] | EC50 (read off the curve) [7] | EC50, Vero-based neutralization assay against ZIKA/2015/Paraiba [8] | FRNT50 (focus reduction neutralization on Vero cells) [9] | FRNT50 (focus reduction neutralization on Vero cells) [10] | FRNT50 (focus reduction neutralization on Vero cells) [11] | binding result [12] | IC50 (read off the curve) [13] | EC50 (read off the curve) [14] | EC50 (read off the curve) [15] | binding result [16] | EC50 (read off the curve) [17] |
| --- | --- | --- | --- | --- | --- | --- | --- | --- | --- | --- | --- | --- | --- | --- | --- | --- | --- |
| B1 | 0.04 µg/mL | ~0.06 µg/mL | ~0.02 µg/mL | 2.5 µg/mL | no binding | ~0.07 µg/mL | ~0.02 µg/mL | 0.005 to 0.01 µg/mL | 4.7 ng/mL | 5.3 ng/mL | 21.7 ng/mL | no binding | ~0.008 µg/mL | – | – | – | – |
| B2 | – | ~0.05 µg/mL | ~0.03 µg/mL | – | no binding | ~0.05 µg/mL | ~0.03 µg/mL | – | 4.7 ng/mL | 2.3 ng/mL | 14.6 ng/mL | no binding | ~0.4 µg/mL | ~0.2 µg/mL | ~0.3 µg/mL | no binding | ~0.2 µg/mL |
